Experimental data taken from publication PMC9888277.

B1: wild-type KHNYN-GFP [human] / ZAP-L (zinc finger antiviral protein, long isoform) [modified: C-terminal S-farnesylation; C-terminal S-farnesylation] [human (endogenous in HeLa)] (parent)
chain 1: MPTWGARPASPDRFAVSAEAENKVREQQPHVERIFSVGVSVLPKDCPDNPHIWLQLEGPKENASRAKEYLKGLCSPELQDEIHYPPKLHCIFLGAQGFFLDCLAWSTSAHLVPRAPGSLMISGLTEAFVMAQSRVEELAERLSWDFTPGPSSGASQCTGVLRDFSALLQSPGDAHREALLQLPLAVQEELLSLVQEASSGQGPGALASWEGRSSALLGAQCQGVRAPPSDGRESLDTGSMGPGDCRGARGDTYAVEKEGGKQGGPREMDWGWKELPGEEAWEREVALRPQSVGGGARESAPLKGKALGKEEIALGGGGFCVHREPPGAHGSCHRAAQSRGASLLQRLHNGNASPPRVPSPPPAPEPPWHCGDRGDCGDRGDVGDRGDKQQGMARGRGPQWKRGARGGNLVTGTQRFKEALQDPFTLCLANVPGQPDLRHIVIDGSNVAMVHGLQHYFSSRGIAIAVQYFWDRGHRDITVFVPQWRFSKDAKVRESHFLQKLYSLSLLSLTPSRVMDGKRISSYDDRFMVKLAEETDGIIVSNDQFRDLAEESEKWMAIIRERLLPFTFVGNLFMVPDDPLGRNGPTLDEFLKKPARTQGSSKAQHPSRGFAEHGKQQQGREEEKGSGGIRKTRETERLRRQLLEVFWGQDHKVDFILQREPYCRDINQLSEALLSLNF
chain 2: MADPEVCCFITKILCAHGGRMALDALLQEIALSEPQLCEVLQVAGPDRFVVLETGGEAGITRSVVATTRARVCRRKYCQRPCDNLHLCKLNLLGRCNYSQSERNLCKYSHEVLSEENFKVLKNHELSGLNKEELAVLLLQSDPFFMPEICKSYKGEGRQQICNQQPPCSRLHICDHFTRGNCRFPNCLRSHNLMDRKVLAIMREHGLNPDVVQNIQDICNSKHMQKNPPGPRAPSSHRRNMAYRARSKSRDRFFQGSQEFLASASASAERSCTPSPDQISHRASLEDAPVDDLTRKFTYLGSQDRARPPSGSSKATDLGGTSQAGTSQRFLENGSQEDLLHGNPGSTYLASNSTSAPNWKSLTSWTNDQGARRKTVFSPTLPAARSSLGSLQTPEAVTTRKGTGLLSSDYRIINGKSGTQDIQPGPLFNNNADGVATDITSTRSLNYKSTSSGHREISSPRIQDAGPASRDVQATGRIADDADPRVALVNDSLSDVTSTTSSRVDDHDSEEICLDHLCKGCPLNGSCSKVHFHLPYRWQMLIGKTWTDFEHMETIEKGYCNPGIHLCSVGSYTINFRVMSCDSFPIRRLSTPSSVTKPANSVFTTKWIWYWKNESGTWIQYGEEKDKRKNSNVDSSYLESLYQSCPRGVVPFQAGSRNYELSFQGMIQTNIASKTQKDVIRRPTFVPQWYVQQMKRGPDHQPAKTSSVSLTATFRPQEDFCFLSSKKYKLSEIHHLHPEYVRVSEHFKASMKNFKIEKIKKIENSELLDKFTWKKSQMKEEGKLLFYATSRAYVESICSNNFDSFLHETHENKYGKGIYFAKDAIYSHKNCPYDAKNVVMFVAQVLVGKFTEGNITYTSPPPQFDSCVDTRSNPSVFVIFQKDQVYPQYVIEYTEDKACVIS

Variants of: B1
Assay: co-immunoprecipitation (GFP IP, immunoblot for endogenous ZAP, quantified)
Conditions: with ZAP-L (zinc finger antiviral protein, long isoform) [modified: C-terminal S-farnesylation, HeLa cell lysates, N = 3, parent: 1, read off a plot

| Variant | ratio to parent |
| --- | --- |
| chain 1 L676Q F678E | 0.38 |
